The target in test [1] is TatB, wild type (E. coli) (UniProt P69425). Briefly: cross-linking.
Another test has as its target TatB(L54Bpa) (E. coli) (UniProt P69425). Briefly: cross-linking.

Where “and” joins values, the source holds several entries; their conditions need not be identical. Equal entries are not always repeated.

Regarding “pSufI(L328Bpa) (from UniProt P26648 1-470) (natural protein)”, the percent of the vesicle-associated pSufI in the TatB adduct in test [1] turned out to be 15%.
On to “TatB(L54Bpa) (from UniProt P69425 1-171) (natural protein)”, for which, in the test with TatB(L54Bpa) (E. coli), the stoichiometry N was 2 and 3.

Broadly, the stoichiometry N is the number of molecules, sites or subunits per partner or assembly.

The values are drawn from article PMC2993744.
